Experimental data from the DeepSol protein solubility set.

Test: soluble on expression in E. coli; label from the status in PepcDB or PDB records

Q: With “MGSDKIHHHHHHMLRKSLILVLTGALTGLFSSISQGAETLSVATDAIAADFYPATQAGPQYGVLVLGGAEGGKPESLAKAIAHEGHPVLSLAYFNDKGLPQELEQIPLEYFAKAKVWLLNQANVRQDGLILVGWSKGAELSLLLASQDPLFSKVVAIAPSSVIWAGFLKDWTKTPSSSWTQGGKALDFVPFRPTGEVKGLLDLYSQSLQNAKAGQGRIPVENIKGDVVLLTGSNDEIWPSNLMAKALCQRMDTAGTQGSCTHINFEGLDHLLGEKFLDSNDAMHKQFMGFLEAE” as the sequence, how does the “soluble on expression in E. coli” value read?
A: not soluble

Q: For “MGSDKIHHHHHHMLTCNGSKTFQTFIKAVTDLINSNLLEDQMVCGIEKLLEELLEKKTWLPLEKQKANSAQYARHLLYEDPLNRFEVLALVWKDGQSTPLHDHDGTWGVEGVFTGRIMVQNFIQTKQLENSLVYLTHTGNLYLGEGETDKVIPPADCHILEIDDNESVVTIHVYGKRLEKFKVYVPTKEKNVYTCETKYIRYNS”, which “soluble on expression in E. coli” value is on record?
A: not soluble

Q: For “MGSDKIHHHHHHMLTQLQCPSCGGRLLSNKEGRNSILCQSCKKEFSAREGVLCFVPDNVFTQLDNIDYDKHYSISDESSQQAFASLKGVLGNRLKNNYGVLLEIGAGTGGFTKGLLTNIKVNRAIVTDISPKMLSICRKRVLGESHLADDVIFATYSTGENILPSNSIDCIIGSFVLHHILDYKSFIRKSYDLLKKDGAFIFSEPCYKFHDALVLTMSEILETLIGEGDNSEVDLTRLSNWIHELHFNLKYVGDQDVLSGREDKHLFIRSEVENSAFDVGFELVEILPYGDPDAINQCLLSYLPQLDLSHIFLQKVSNLFDLYHIKYFGLIEREDAVPAYVFFFKKKMNLFSRLFKNV”, which “soluble on expression in E. coli” value is on record?
A: not soluble

Q: With “MGSDKIHHHHHHMLYRTNPKNGDKLSILGFGAMRLPTKEDGSIDEEKATKMVRYAIDNGVNLVDTAWPYHMGECEPFLARALSEGYREKVKLSTKLPTWAVNTREDMDKFLNAQLEKLNTKQIDYYLLHTLTKASWAKIKDLGVIDFLNSAKEDGRIKNAGFSYHGMQEDFAPIVDDYNWDFCLIQYNYLDEKVQAGTKGLKYAASKGLGVFVMEPLRGGNLAGKTPEEVMEIWNKADKKRTTVEWALRWVWNHPEVTSVLSGMTEPEQLEENIKIAEEGYPNSLTQKELGLIEQAALKYGELLKINCTGCGYCMPCPANVDIPTCFGIYNNLHMFHDETQRFQYFATLSDIFWTNEPHFASQCTNCGICIEKCPQYIQIPEMLEKVVAEFEGPDNDEKMAMVKSVFKM” as the sequence, how does the “soluble on expression in E. coli” value read?
A: not soluble

Q: Which “soluble on expression in E. coli” value does the source give for “MGSDKIHHHHHHMMAVLHRSSDIIAATICRILIPQFYSDNTVPINGNYSCIFLLSYMFPLDSPLLADLYKKYRSRLISRIARLTGCRETAADLAQDAYMRLLDQTGVACPSNPAAYLFRIGRNLAIDHQRRPDFRQHDETSFEEELPSSFSGLDQQAVYRQECEQLWTAIMELPRPVSRALVLSVIEGVSQAAIAEELGVTERTVRRYISKGMAHCQRRLRNPLPPARYDR” here?
A: not soluble

Q: With “MGSDKIHHHHHHMMKYIFRTFSCGSGDCIFLILKSGDYTLNLMIDCGKYTEEIDEYVRNSLKNKIDYLIVTHIDNDHINGLIKMLTQNPDLIIEHIIYNCYQRVINNEQPWTEQMKANVDRLYDQLPIVIDMLSQNVNEEKALTLAECILRKEEWRRAWQREYITDESPAIQLANNMGRIIFLSPSQVALDRLDVKYRKLFWQQLYKQKTEDYDGEETIYEALMRIAQLEEGEETKDENVNDDTINEQILKRYASRPLSKMDDNNIASIAFIWEYQGHRILLMGDADPEQVSNAIEKVYKDETKPVIFDLIKVSHHGSAHSTSCGLMDVIDSERFFFTGGGKERPSLQTLGRIIIRPLPNGIAYRDIRYNRPNEILNKLANLSVDEKGSLHIRVNHNENGYEVSC” as the sequence, how does the “soluble on expression in E. coli” value read?
A: not soluble

Q: With “MGSDKIHHHHHHMMPVRQTLSKPDIQLSYLEWNQGQEPLLLLHGLGDHALVWSSLGDYLAADYHIVAPDMRGHGESTKPERDYTFESAIADLEALMDHLGWTSAQIVSHSWTGKLAAIWARQNRKRLRSIILVDPIFIWKMPSLLRLTFPMLYRFLPFLKSMGPFTSHEEAEQQARQLKQYQGWSSLQEQVFQAGIEQKPDGSWGSKFTIAARDEIFEAVMQVPGFTIPLDIQALFIQPEQGLNRQDWQIQPYKTYLKKLRICQVPGNHWPFLTQPETFNQTVAAFLAEHR” as the sequence, how does the “soluble on expression in E. coli” value read?
A: not soluble

Q: For “MGSDKIHHHHHHMMQGFLLQTQSIRDEDLIVRVLTKNQLKTLYRFYGKRHSVLNVGRKIDFEEENDDKFLPKLRNILHLGYIWEREMERLFFWQRFCALLFRHLEGVHSLDSVYFDTLDDGANKLAKQHPLRVILEMYATLLNFEGRLQSYNSCFLCDAKLERSVALAQGFILAHPSCLKAKSLNLEKIQAFFRTQSTIDLETEEVEELWRTLNLGF”, which “soluble on expression in E. coli” value is on record?
A: not soluble

Q: For “MGSDKIHHHHHHMMRENLAYLEPPLRIAILSQGPQLYSTKRLVEAAQARGHDVHIINPLKCYMNINMRQPSIHIAGKELPQFDAVIPRIGASITFYGSAVLRQFEMMGVYTINDSVGISRSRDKLRSMQLLSRKGIGLPITGFANKPSDIPDLIDMVGGAPLVVKLLEGTQGIGVVLAETRKAAESVLEAFMGLKANIMVQEYIKEANGADIRCFVLGDKVIAAMKRQAKAGEFRSNLHRGGTATLVKLSPEERTTAIRAAKTMGLSLAGVDLLRSNHGPVVMEVNSSPGLEGIEAATQKDVANAIIEFIEKNANKAKS”, which “soluble on expression in E. coli” value is on record?
A: not soluble

Q: With “MGSDKIHHHHHHMMSAVADIQECRDFLAAHPQVKFVEVFFTSMTGVPRGKRLRVHELEAIYEYGRFLPGSVLVVDTNGADCEDTGLVWEDGDADRRARPVPGTLTLAPWLGPDVAQVMLSLYELDGTPNDLDPRHVLQRVLDRYAADGLTPVAACELEYYLVDLQRGPNGELLPAKSLQTGLRPTGIQVYGLPELEAHAPFLRELWDVADTLGVPLEGAISEFAPAQVELTLKHKPDALRAADDAVLYKRAAKGVALRHGMEATFMAKPWSDRAGNGFHVHLSVNDAAGNNLCASEDIEGSDLLKHAIGGMKVLLGEGMAILAPNANSYRRFKANSYAPVAPTWGVNNRTVSLRVPAGPPKTRHVEHRVAGADGNPYLVLAVLLASAHHGITNKIDPGPAVIGDGYAAAAKENIRLPNNWFAAVDLFEQSSVLRDYLGDRFVDMFVSVKRTEQARFFEVVTELDFDWYLRNA” as the sequence, how does the “soluble on expression in E. coli” value read?
A: not soluble

Q: With “MGSDKIHHHHHHMMSRPIILGIVGDSAAGKTTLTRGIAQVLGPENVTLICTDDYHRYDRQQRAEIGITALHPDCNHLDIMQQHLSLLRTGQPILKPVYSHKTGSFEPPQYIKPNKFVIIEGLLGYSTRAARDCYDVKVYLAPPENLRAKWKVKRDTQKRGYTPEQVLAELEKREPDSEQFIRPQRQWSDIVVSFYPPHEDGDETNGHLNVRLVLRPTIPHPDFTSIINLTNGSSVSAIRLGLDRDMSKPVDVLEVDGHATLEQVNKLEHILCSDMPYLSSVCDRESNPELGKIAGTTGETLQSYPLALTQLIITYHMLKATQIYQ” as the sequence, how does the “soluble on expression in E. coli” value read?
A: not soluble

Q: Which “soluble on expression in E. coli” value does the source give for “MGSDKIHHHHHHMNAIASRQRPLLPVREAVVTRVRGSAPTAVGASMCLLEDGSLLGTVGGGRMEYQVCQVLCSPRSEAPPALLSFTLGTADDQCCGGQVEICVLDVPLFFSELYQPGASRLYQRDSAGRLRLVAGMTRLGREIGSFDALTVLLRANAPGMDVEERHFALPAPHHQPLWIFGAGHVGRAIASMAHKLDFASSVFDQRPEWADPAAFPPEVTLVDTWTWADLQAPATDAMVLIMTYSHAMDYALLEHFIGEPLAYLGVIASRSKAARFSHALSRAGHDIPDYLHMPMGLPGMGKKPPEIAISVLAELLQLRHKKTDF” here?
A: not soluble

Q: Which “soluble on expression in E. coli” value does the source give for “MGSDKIHHHHHHMNAPLLLRNVGRGESTESGAVPPAVLPPVQPSPTTLQAPDHAARRRIAVFRALQLGDMLCAVPALRALREGEPDAHITLIGLPWVRDFASRFGSLIDDVMVFPGAPGFPERPYDAAALAAFHAEARARRFDLAIQLHGSGTLSNDVVRQLGARTIAGFCPTSAEAALANEHERLLPWPGGNEIERLLGLMRALGYPVVDAHLAFPLRPQDHAGWQRLAELHGLVGGEYICVHPGARMLSRRWPVERFADVALRLRKRWRIVVTGAPDEIMLTHRLCELIGGDVVNLTAATPLGELAALIAHARLLLCNDTGPSHIAAALDTPSVVVSCGGDSDRWAPLDATLHHVLASYPPCRPCNWQKCPIRHECATAITVDAVEAEALSLASRGHDHA” here?
A: not soluble

Q: With “MGSDKIHHHHHHMNAPNSQKILFAITKKSQQDGRSFPTIIRVLKRIGSCAPQGVFQMLHWKPEYLRAFVSERSPQKLFDIAVHLAQDLDMDYLGLNIRIQIATQTPRLYLYSNYPSEWIERYQRDDFYKQDPAANLSHSSTMPVLWTDELYKEAPQFREMACLYGLRHGWTQSLHDQQHNESQISVARPNGPIDEVELYDKAGSVQWLCHTLHAVLGEHHLNALCPPQPKMSERELEVLKWSAAGKTAADVASILSLSQSTVNFHIRSVITKTNAANKAGAIAIAALRGWI” as the sequence, how does the “soluble on expression in E. coli” value read?
A: not soluble

Q: With “MGSDKIHHHHHHMNDFTTEILKTLANKGDLNELFRVHLEKAVNTLLKTELTAFLDYEKYDRIGFNTGNSRNGSYDRTVKTEYGELHLQIPRDRNGEFKQQTVPAYRRTNDTLEETVIHLFRKGITMSEIADLIEKMYGHHYTPQTMSNITKSFTEEVTAFKGRELHDRYAAIYMDATYIPLKRKTVAKEAIHIAVGIRPDGSKEVLSYAIAPTESITIWEEILLDLQERGLKNVLLFITDGLKGMVGAISRFYPKARFQHCCVHVSRNISHKVRVDDRKEVCDDFKMVYQTSSKKVALEARGAFAEKWKTSYPKVVESILSNDHLLTFYDFPLAIRKSIYSTNLIESFNKQIKKYSHRKEQFQNEESMERFLVSSFDTYNQKFLGRSHKGFQQAEGELEQMLSQLIEN” as the sequence, how does the “soluble on expression in E. coli” value read?
A: not soluble

Q: With “MGSDKIHHHHHHMNFGYWYYREYFNTIKLNSEGIVTNFSTFNKGKNDKLIKGATLPPCDKENDIKDVTGFELKTCYPGLLCGVGYHHEINKPADEKGKKVEGDKEDDAPEVYNLGMYFDYTSGLPVIPGSSIKGMLRSAIEEWDFLADYELNNGVTREEIIEKVFVGKEYSIYDRDIFLDAIPIRVDNTLFGEDYITHHPNPLQNPNPVRFLRVEPGVTYQFRFILKDHGEKLTVDFRTKLFKAIICTFGLGAKTNVGYGQFVEP” as the sequence, how does the “soluble on expression in E. coli” value read?
A: not soluble

Q: Which “soluble on expression in E. coli” value does the source give for “MGSDKIHHHHHHMNIAMFSDTYAPQINGVATSIRVYKKKLTERGHKVVVVAPSAPEEEKDVFVVRSIPFPFEPQHRISIASTKNILEFMRENNVQIIHSHSPFFIGFKALRVQEEMGLPHVHTYHTLLPEYRHYIPKPFTPPKRLVEHFSAWFCNMTNVVIAPTEDIKRELESYGVKRPIEVLPTGIEVEKFEVEAPEELKRKWNPEGKKVVLYAGRIAKEKNLDFLLRVFESLNAPGIAFIMVGDGPEREEVEEFAKEKGLDLKITGFVPHDEIPLYYKLGDVFVFASKTETQGLVLLEALASGLPVVALKWKGVKDVLKNCEAAVLIEEENERLFAEKIKHILKNDRLREELSTKGREFVRKEWSVDRFVQRLEEIYTRAIEEGPVEINTSLMIKEFVKFEKLKEFFSKIEDRIWR” here?
A: not soluble

Q: With “MGSDKIHHHHHHMNIFQQLEHSKAPAAVRLVMVIDYIAKRDEASFTEICTDLSIPKSSVHHLLEVLVVTQLLRQRADGRYVLGLRLFELGGLVIKNIDLRKDTINFMHELVKETELTCHLGIMDGDNGFFLSKVESPKAIVKTSWEGKKIVFNRMSLGKVLVAWLPQERIESLIADCSFEYLTPRTITNKDDFLQHLKTVKEQGWAIDDGEDIEEICCMAAPIFNQNGDVIAAIGVNGMQSQYANGKKEKHLASLIKTSKAITAHINSRNIDIR” as the sequence, how does the “soluble on expression in E. coli” value read?
A: not soluble
